Experimental data from patent EP4201483A1, “LPL1 DERIVED IMMUNE ENHANCING PEPTIDES” (priority 2021, dated 2023).

Key:
HaCaT cells [1] = assay: S. aureus USA300 invasion / internalization by HaCaT keratinocytes; format: cell-based, human; parameters: key: ⇑: increased invasion and F-actin level; ⇓: decreased invasion and F-actin level; details: Triggering invasion of USA300 by keratinocytes (HaCaT)
Method: (§1) To identify Lpli motifs that interact with the target protein Hsp90α the inventors synthesized peptides of various length covering the whole Lpli protein. All the peptides (> 40) were tested for their ability a) to interact with Hsp90α, and b) to trigger S. aureus internalization by keratinocyte-like HaCaT cells. Table 1: Selected Lpl1 derived peptides with their effect on USA300 invasion in HaCaT keratinocytes, interaction with Hsp90α and F-actin levels in HaCaT cells
The inventors compared the effect on host internalization of L13 and L15 with that of geldanamycin. Geldanamycin is a well-known cell permeable anti-neoplastic drug that competes with ATP for binding to Hsp90, thus inhibiting Hsp90 activity (Gorska et al., 2012). This in turn leads to inactivation, destabilization, and eventual degradation of Hsp90 client proteins, The geldanamycin analog 17AAG decreased F-actin formation upon Hsp90 inhibition (Taiyab & Rao Ch, 2011).

HaCaT cells [2] = assay: F-actin levels in HaCaT cells; format: cell-based, human; parameters: key: ⇑: increased invasion and F-actin level; ⇓: decreased invasion and F-actin level
Method: as §1

B1: LNC2: Lpl1 derived peptide, 64 aa, sequence shown as image only (peptide)
peptide: DEIVKELRSRYNISTEKSPILKMHIDGDLKGSSVGYRKLEIDFSKRENSKLSVIEFLSYKPAKK
Invasion (HaCaT cells [1]): ⇑ | F-actin levels (HaCaT cells [2]): ⇑

B2: TAKGHYFVTTFYRNGKLPDEKNYKIEMKNNKIILLDEVKDDKLKQKIENFKFFGQYANL KELRK (peptide, listed as Staphylococcus aureus)
chain: TAKGHYFVTTFYRNGKLPDEKNYKIEMKNNKIILLDEVKDDKLKQKIENFKFFGQYANLKELRK
notes: 64 aa domain of S.aureus Lpli protein
Invasion (HaCaT cells [1]): ⇑ | F-actin levels (HaCaT cells [2]): ⇑
